Test results reported in patent US20180371086A1.

Key:
Experiment in all cases: cell-based or functional assay
[1] = target: HIV-1 Env of clone WITO (HIV-1)
[2] = target: HIV-1 Env of isolate 92US727 (HIV-1)
[3] = target: HIV-1 Env of isolate 8318 (HIV-1)
[4] = target: HIV-1 Env gp120 of virus 92US727, on infected cells (HIV-1)
[5] = target: HIV-1 Env of isolate 8134 (HIV-1)
[6] = target: HIV-1 Env of isolate 92HT593 (HIV-1)
[7] = target: HIV-1 Env of isolate 8320 (HIV-1)
[8] = target: HIV-1 Env of strain BaL (HIV-1)
[9] = target: HIV-1 Env of isolate 8110 (HIV-1)
[10] = target: HIV-1 Env of isolate 92US657 (HIV-1)
[11] = target: HIV-1 Env of isolate 92US712 (HIV-1)
[12] = target: HIV-1 Env of clone REJO (HIV-1)
[13] = target: HIV-1 Env of clone CH058 (HIV-1)
[14] = target: HIV-1 Env gp120 of virus CH058, on infected cells (HIV-1)
[15] = target: HIV-1 Env of isolate 8106 (HIV-1)

Substance: PGT-121.60 (antibody)
- IC50 (neutralization, CEM.NKr.CCR5.LucR based assay) [1]: 1.05 µg/mL
- IC50 (neutralization, CEM.NKr.CCR5.LucR based assay) [2]: 0.013 µg/mL
- IC50 (neutralization, CEM.NKr.CCR5.LucR based assay) [3]: 0.048 µg/mL
- Maximum percent of HIV-infected cells killed; PBMC-derived effector cells; donor 1004344; virus 92US727 [4]: 63.7%
- Maximum percent of HIV-infected cells killed; tonsil-derived effector cells; donor 1004344; virus 92US727 [4]: 0%
- Potency (IC50) of killing HIV-infected cells; PBMC-derived effector cells; donor 1004344; virus 92US727 [4]: 0.014 µg/mL
- Potency (IC50) of killing HIV-infected cells; tonsil-derived effector cells; donor 1004344; virus 92US727 [4]: > 10 µg/mL
- IC50 (neutralization, CEM.NKr.CCR5.LucR based assay) [5]: 0.062 µg/mL
- IC50 (neutralization, CEM.NKr.CCR5.LucR based assay) [6]: 0.024 µg/mL
- IC50 (neutralization, CEM.NKr.CCR5.LucR based assay) [7]: > 100 µg/mL
- IC50 (neutralization, CEM.NKr.CCR5.LucR based assay) [8]: 0.015 µg/mL
- IC50 (neutralization, CEM.NKr.CCR5.LucR based assay) [9]: 0.514 µg/mL
- IC50 (neutralization, CEM.NKr.CCR5.LucR based assay) [10]: 0.168 µg/mL
- IC50 (neutralization, CEM.NKr.CCR5.LucR based assay) [11]: 0.019 µg/mL
- IC50 (neutralization, CEM.NKr.CCR5.LucR based assay) [12]: > 100 µg/mL
- IC50 (neutralization, CEM.NKr.CCR5.LucR based assay) [13]: 0.063 µg/mL
- Maximum percent of HIV-infected cells killed; PBMC-derived effector cells; donor 1003277; virus CHO58 [14]: 66.2%
- Maximum percent of HIV-infected cells killed; PBMC-derived effector cells; donor 1004344; virus CHO58 [14]: 82.8%
- Maximum percent of HIV-infected cells killed; tonsil-derived effector cells; donor 1003277; virus CHO58 [14]: 10.9%
- Maximum percent of HIV-infected cells killed; tonsil-derived effector cells; donor 1004344; virus CHO58 [14]: 0%
- Potency (IC50) of killing HIV-infected cells; PBMC-derived effector cells; donor 1003277; virus CHO58 [14]: 0.706 µg/mL
- Potency (IC50) of killing HIV-infected cells; PBMC-derived effector cells; donor 1004344; virus CHO58 [14]: 0.094 µg/mL
- Potency (IC50) of killing HIV-infected cells; tonsil-derived effector cells; donor 1003277; virus CHO58 [14]: > 10 µg/mL
- Potency (IC50) of killing HIV-infected cells; tonsil-derived effector cells; donor 1004344; virus CHO58 [14]: > 10 µg/mL
- IC50 (neutralization, CEM.NKr.CCR5.LucR based assay) [15]: 0.091 µg/mL
